Measured values published in patent US20240228639A1 (ALLOGENE THERAPEUTICS, published 2024).
“And” between values parts separate entries of the source, which are not always exact repeats. Identical values can stand only once.

Columns and labels:
[1] = biological target: T1, Biotin-hCD70 (human, UniProt P32970 39-193, limits assumed, biotinylated (site not stated)); test: SPR, Bt-hCD70 alone injected over clone 60 (hybridoma and recombinant) captured on anti-mouse Fc, then streptavidin
T1 construct: also called biotin-hCD70 complex; target antigen hCD70
T1 sequence (looked up): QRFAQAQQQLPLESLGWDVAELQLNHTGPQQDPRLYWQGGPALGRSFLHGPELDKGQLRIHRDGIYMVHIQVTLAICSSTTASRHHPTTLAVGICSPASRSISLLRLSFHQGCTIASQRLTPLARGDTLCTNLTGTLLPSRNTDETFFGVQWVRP

[2] = biological target: T2, 4F11 scFv 10xHis; test: SPR (Biacore T200), 37 C; antibody captured on anti-mouse Fc chip, 4F11 scFv 10xHis 1.2-100 nM as analyte; 1:1 Langmuir fit
T2 construct: also called 4F11-derived scFv with a His tag; anti-CD70 scFv 4F11
Experimental: (§1) All SPR analysis was determined on a BIACore T200 SPR instrument (Cytiva, Marlborough, MA). For kinetic analysis and determination of simultaneous target antigen binding of CD70 anti-idiotype antibodies, mouse Fc was captured on a Biacore Series S CM4 sensor chip by amine-coupling of an anti-mouse Fc reagent (Mouse Antibody Capture Kit, Cytiva, BR100838) to the Biacore Series S CM4 sensor chip using a running buffer of 10 mM HEPES, 150 mM NaCl, 0.05% (v/v) Tween-20, pH 7.4 at 25° C. All surfaces of the sensor chip were activated with a 1:1 (v/v) mixture of 400 mM 1-Ethyl-3-(3-Dimethylaminopropyl) carbodiimide hydrochloride (EDC) and 100 mM N-hydroxysuccinimide (NHS) for 7 min at 10 μL/min. The anti-mouse Fc reagent was diluted to 30 μg/mL in 10 mM sodium acetate (pH 5.0) and injected on all four flow cells for 7 min at 10 μL/min, then all flow cells were blocked with 100 mM ethylenediamine in 200 mM Borate buffer pH 8.5 for 7 min at […].
(§2) All interaction experiments were performed at 37° C. using the same running buffer as described above supplemented with 1 mg/mL BSA. […] The dissociation was monitored for 10 min followed by regeneration of all flow cells with 10 mM glycine at pH 1.7 for 3 min. […]

[3] = biological target: T2, 4F11 scFv 10xHis; test: SPR (Biacore), clone 60 captured on anti-mouse Fc, 4F11_scFv_0166-P as analyte, 37 C, 1:1 Binding model; Table 3 prints 1.43 nM for this lot, the sheet prints 1.422E-9
Experimental: as §1, §2

T2 sequence (scFv, as listed by the source): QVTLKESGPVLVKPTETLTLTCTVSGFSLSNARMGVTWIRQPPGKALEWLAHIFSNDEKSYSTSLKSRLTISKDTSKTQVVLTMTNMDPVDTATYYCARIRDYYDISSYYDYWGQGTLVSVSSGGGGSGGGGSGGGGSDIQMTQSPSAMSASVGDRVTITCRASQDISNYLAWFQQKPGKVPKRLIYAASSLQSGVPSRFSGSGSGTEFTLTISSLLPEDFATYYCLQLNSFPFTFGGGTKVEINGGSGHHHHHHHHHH

binding result [1]: no binding (tested: 1 uM) | Kd [2]: 1.43 nM and 1.52 nM and 1.42 nM and 1.32 nM | koff [2]: 0.00343 s⁻¹ and 0.00359 s⁻¹ and 0.00312 s⁻¹ and 0.00348 s⁻¹ | t1/2 [2]: 3.32 min and 3.37 min and 3.7 min and 3.22 min | Kd [3]: 1.42 nM
B1: anti-idiotype antibody Clone 60 (IDA2002-1.60) (antibody, mouse IgG1, kappa, V domains shown)
VH: EVQLQQSGPELVKTGTSVKISCKASGYSITGYYIHWVKQSHGRSLDWIGSISFYNGATTYNQKFKGKVTFTVDTSSSTAYMQFNSLTSEDSAVYYCGRRGDDYDVFAYWGQGTLVTVSA
VL: DIVLTQSPASLAVSLGQRATISCRASESVDSYGYSFLHWYQQKPGQPPTLLIYRASNLESGIPARFSGSGSRTDFTLTINSVEADDVATYYCQQSNEDPWTFGGGTKLEIKR
notes: Mouse IgG1 kappa; also called clone 1.60; Clone 60-PE
kon [2]: 2.7e+06 M⁻¹ s⁻¹ and 2.2e+06 M⁻¹ s⁻¹ (2×) and 2.4e+06 M⁻¹ s⁻¹
